B1: H183/L072 VL H34P (antibody, name in Kabat numbering, V domains shown)
VH: QVQLVESGGGLVQPGRSLRLSCAASGFTFSNAWMHWVRQAPGKGLEWVAQIKDKGNAYAAYYAPSVKGRFTISRDDSKNSIYLQMNSLKTEDTAVYYCHYVHYASASTVLPAFGVDAWGQGTTVTVSS
VL: DIVMTQSPLSLPVTPGEPASISCQASQELVHMNRNTYLPWYQQKPGQAPRLLIYKVSNRFPGVPDRFSGSGSGTDFTLKISRVEAEDVGVYYCAQGTSVPFTFGQGTKLEIK
B2: H183/L072 VL H34V (antibody, name in Kabat numbering, V domains shown)
VH: QVQLVESGGGLVQPGRSLRLSCAASGFTFSNAWMHWVRQAPGKGLEWVAQIKDKGNAYAAYYAPSVKGRFTISRDDSKNSIYLQMNSLKTEDTAVYYCHYVHYASASTVLPAFGVDAWGQGTTVTVSS
VL: DIVMTQSPLSLPVTPGEPASISCQASQELVHMNRNTYLVWYQQKPGQAPRLLIYKVSNRFPGVPDRFSGSGSGTDFTLKISRVEAEDVGVYYCAQGTSVPFTFGQGTKLEIK
B3: H183/L072 VL T31F (antibody, name in Kabat numbering, V domains shown)
VH: QVQLVESGGGLVQPGRSLRLSCAASGFTFSNAWMHWVRQAPGKGLEWVAQIKDKGNAYAAYYAPSVKGRFTISRDDSKNSIYLQMNSLKTEDTAVYYCHYVHYASASTVLPAFGVDAWGQGTTVTVSS
VL: DIVMTQSPLSLPVTPGEPASISCQASQELVHMNRNFYLHWYQQKPGQAPRLLIYKVSNRFPGVPDRFSGSGSGTDFTLKISRVEAEDVGVYYCAQGTSVPFTFGQGTKLEIK
B4: H183/L072 VL H27dR (antibody, name in Kabat numbering, V domains shown)
VH: QVQLVESGGGLVQPGRSLRLSCAASGFTFSNAWMHWVRQAPGKGLEWVAQIKDKGNAYAAYYAPSVKGRFTISRDDSKNSIYLQMNSLKTEDTAVYYCHYVHYASASTVLPAFGVDAWGQGTTVTVSS
VL: DIVMTQSPLSLPVTPGEPASISCQASQELVRMNRNTYLHWYQQKPGQAPRLLIYKVSNRFPGVPDRFSGSGSGTDFTLKISRVEAEDVGVYYCAQGTSVPFTFGQGTKLEIK
B5: H183/L072 VL L27bW (antibody, name in Kabat numbering, V domains shown)
VH: QVQLVESGGGLVQPGRSLRLSCAASGFTFSNAWMHWVRQAPGKGLEWVAQIKDKGNAYAAYYAPSVKGRFTISRDDSKNSIYLQMNSLKTEDTAVYYCHYVHYASASTVLPAFGVDAWGQGTTVTVSS
VL: DIVMTQSPLSLPVTPGEPASISCQASQEWVHMNRNTYLHWYQQKPGQAPRLLIYKVSNRFPGVPDRFSGSGSGTDFTLKISRVEAEDVGVYYCAQGTSVPFTFGQGTKLEIK
B6: H183/L072 VL Y32F (antibody, name in Kabat numbering, V domains shown)
VH: QVQLVESGGGLVQPGRSLRLSCAASGFTFSNAWMHWVRQAPGKGLEWVAQIKDKGNAYAAYYAPSVKGRFTISRDDSKNSIYLQMNSLKTEDTAVYYCHYVHYASASTVLPAFGVDAWGQGTTVTVSS
VL: DIVMTQSPLSLPVTPGEPASISCQASQELVHMNRNTFLHWYQQKPGQAPRLLIYKVSNRFPGVPDRFSGSGSGTDFTLKISRVEAEDVGVYYCAQGTSVPFTFGQGTKLEIK
B7: H183/L072 VL N28Y (antibody, name in Kabat numbering, V domains shown)
VH: QVQLVESGGGLVQPGRSLRLSCAASGFTFSNAWMHWVRQAPGKGLEWVAQIKDKGNAYAAYYAPSVKGRFTISRDDSKNSIYLQMNSLKTEDTAVYYCHYVHYASASTVLPAFGVDAWGQGTTVTVSS
VL: DIVMTQSPLSLPVTPGEPASISCQASQELVHMYRNTYLHWYQQKPGQAPRLLIYKVSNRFPGVPDRFSGSGSGTDFTLKISRVEAEDVGVYYCAQGTSVPFTFGQGTKLEIK
B8: H183/L072 VL N28F (antibody, name in Kabat numbering, V domains shown)
VH: QVQLVESGGGLVQPGRSLRLSCAASGFTFSNAWMHWVRQAPGKGLEWVAQIKDKGNAYAAYYAPSVKGRFTISRDDSKNSIYLQMNSLKTEDTAVYYCHYVHYASASTVLPAFGVDAWGQGTTVTVSS
VL: DIVMTQSPLSLPVTPGEPASISCQASQELVHMFRNTYLHWYQQKPGQAPRLLIYKVSNRFPGVPDRFSGSGSGTDFTLKISRVEAEDVGVYYCAQGTSVPFTFGQGTKLEIK
B9: H183/L072 VL H27dV (antibody, name in Kabat numbering, V domains shown)
VH: QVQLVESGGGLVQPGRSLRLSCAASGFTFSNAWMHWVRQAPGKGLEWVAQIKDKGNAYAAYYAPSVKGRFTISRDDSKNSIYLQMNSLKTEDTAVYYCHYVHYASASTVLPAFGVDAWGQGTTVTVSS
VL: DIVMTQSPLSLPVTPGEPASISCQASQELVVMNRNTYLHWYQQKPGQAPRLLIYKVSNRFPGVPDRFSGSGSGTDFTLKISRVEAEDVGVYYCAQGTSVPFTFGQGTKLEIK
B10: H183/L072 VL L33W (antibody, name in Kabat numbering, V domains shown)
VH: QVQLVESGGGLVQPGRSLRLSCAASGFTFSNAWMHWVRQAPGKGLEWVAQIKDKGNAYAAYYAPSVKGRFTISRDDSKNSIYLQMNSLKTEDTAVYYCHYVHYASASTVLPAFGVDAWGQGTTVTVSS
VL: DIVMTQSPLSLPVTPGEPASISCQASQELVHMNRNTYWHWYQQKPGQAPRLLIYKVSNRFPGVPDRFSGSGSGTDFTLKISRVEAEDVGVYYCAQGTSVPFTFGQGTKLEIK
B11: H183/L072 VL N28W (antibody, name in Kabat numbering, V domains shown)
VH: QVQLVESGGGLVQPGRSLRLSCAASGFTFSNAWMHWVRQAPGKGLEWVAQIKDKGNAYAAYYAPSVKGRFTISRDDSKNSIYLQMNSLKTEDTAVYYCHYVHYASASTVLPAFGVDAWGQGTTVTVSS
VL: DIVMTQSPLSLPVTPGEPASISCQASQELVHMWRNTYLHWYQQKPGQAPRLLIYKVSNRFPGVPDRFSGSGSGTDFTLKISRVEAEDVGVYYCAQGTSVPFTFGQGTKLEIK
B12: H183/L072 VL V27cG (antibody, name in Kabat numbering, V domains shown)
VH: QVQLVESGGGLVQPGRSLRLSCAASGFTFSNAWMHWVRQAPGKGLEWVAQIKDKGNAYAAYYAPSVKGRFTISRDDSKNSIYLQMNSLKTEDTAVYYCHYVHYASASTVLPAFGVDAWGQGTTVTVSS
VL: DIVMTQSPLSLPVTPGEPASISCQASQELGHMNRNTYLHWYQQKPGQAPRLLIYKVSNRFPGVPDRFSGSGSGTDFTLKISRVEAEDVGVYYCAQGTSVPFTFGQGTKLEIK
B13: H183/L072 VL T31W (antibody, name in Kabat numbering, V domains shown)
VH: QVQLVESGGGLVQPGRSLRLSCAASGFTFSNAWMHWVRQAPGKGLEWVAQIKDKGNAYAAYYAPSVKGRFTISRDDSKNSIYLQMNSLKTEDTAVYYCHYVHYASASTVLPAFGVDAWGQGTTVTVSS
VL: DIVMTQSPLSLPVTPGEPASISCQASQELVHMNRNWYLHWYQQKPGQAPRLLIYKVSNRFPGVPDRFSGSGSGTDFTLKISRVEAEDVGVYYCAQGTSVPFTFGQGTKLEIK
B14: H183/L072 VL Y32W (antibody, name in Kabat numbering, V domains shown)
VH: QVQLVESGGGLVQPGRSLRLSCAASGFTFSNAWMHWVRQAPGKGLEWVAQIKDKGNAYAAYYAPSVKGRFTISRDDSKNSIYLQMNSLKTEDTAVYYCHYVHYASASTVLPAFGVDAWGQGTTVTVSS
VL: DIVMTQSPLSLPVTPGEPASISCQASQELVHMNRNTWLHWYQQKPGQAPRLLIYKVSNRFPGVPDRFSGSGSGTDFTLKISRVEAEDVGVYYCAQGTSVPFTFGQGTKLEIK
B15: H183/L072 VL H27dY (antibody, name in Kabat numbering, V domains shown)
VH: QVQLVESGGGLVQPGRSLRLSCAASGFTFSNAWMHWVRQAPGKGLEWVAQIKDKGNAYAAYYAPSVKGRFTISRDDSKNSIYLQMNSLKTEDTAVYYCHYVHYASASTVLPAFGVDAWGQGTTVTVSS
VL: DIVMTQSPLSLPVTPGEPASISCQASQELVYMNRNTYLHWYQQKPGQAPRLLIYKVSNRFPGVPDRFSGSGSGTDFTLKISRVEAEDVGVYYCAQGTSVPFTFGQGTKLEIK
B16: H183/L072 VL L27bG (antibody, name in Kabat numbering, V domains shown)
VH: QVQLVESGGGLVQPGRSLRLSCAASGFTFSNAWMHWVRQAPGKGLEWVAQIKDKGNAYAAYYAPSVKGRFTISRDDSKNSIYLQMNSLKTEDTAVYYCHYVHYASASTVLPAFGVDAWGQGTTVTVSS
VL: DIVMTQSPLSLPVTPGEPASISCQASQEGVHMNRNTYLHWYQQKPGQAPRLLIYKVSNRFPGVPDRFSGSGSGTDFTLKISRVEAEDVGVYYCAQGTSVPFTFGQGTKLEIK
B17: H183/L072 VL H27dW (antibody, name in Kabat numbering, V domains shown)
VH: QVQLVESGGGLVQPGRSLRLSCAASGFTFSNAWMHWVRQAPGKGLEWVAQIKDKGNAYAAYYAPSVKGRFTISRDDSKNSIYLQMNSLKTEDTAVYYCHYVHYASASTVLPAFGVDAWGQGTTVTVSS
VL: DIVMTQSPLSLPVTPGEPASISCQASQELVWMNRNTYLHWYQQKPGQAPRLLIYKVSNRFPGVPDRFSGSGSGTDFTLKISRVEAEDVGVYYCAQGTSVPFTFGQGTKLEIK
B18: H183/L072 VL N28R (antibody, name in Kabat numbering, V domains shown)
VH: QVQLVESGGGLVQPGRSLRLSCAASGFTFSNAWMHWVRQAPGKGLEWVAQIKDKGNAYAAYYAPSVKGRFTISRDDSKNSIYLQMNSLKTEDTAVYYCHYVHYASASTVLPAFGVDAWGQGTTVTVSS
VL: DIVMTQSPLSLPVTPGEPASISCQASQELVHMRRNTYLHWYQQKPGQAPRLLIYKVSNRFPGVPDRFSGSGSGTDFTLKISRVEAEDVGVYYCAQGTSVPFTFGQGTKLEIK
B19: H183/L072 VL Y32V (antibody, name in Kabat numbering, V domains shown)
VH: QVQLVESGGGLVQPGRSLRLSCAASGFTFSNAWMHWVRQAPGKGLEWVAQIKDKGNAYAAYYAPSVKGRFTISRDDSKNSIYLQMNSLKTEDTAVYYCHYVHYASASTVLPAFGVDAWGQGTTVTVSS
VL: DIVMTQSPLSLPVTPGEPASISCQASQELVHMNRNTVLHWYQQKPGQAPRLLIYKVSNRFPGVPDRFSGSGSGTDFTLKISRVEAEDVGVYYCAQGTSVPFTFGQGTKLEIK
B20: H183/L072 VL N28V (antibody, name in Kabat numbering, V domains shown)
VH: QVQLVESGGGLVQPGRSLRLSCAASGFTFSNAWMHWVRQAPGKGLEWVAQIKDKGNAYAAYYAPSVKGRFTISRDDSKNSIYLQMNSLKTEDTAVYYCHYVHYASASTVLPAFGVDAWGQGTTVTVSS
VL: DIVMTQSPLSLPVTPGEPASISCQASQELVHMVRNTYLHWYQQKPGQAPRLLIYKVSNRFPGVPDRFSGSGSGTDFTLKISRVEAEDVGVYYCAQGTSVPFTFGQGTKLEIK

In the experiment the target is Human CD3eg linker (human). The experiment in a line: SPR; fold vs parent H183/L072. In general terms: In SPR one partner is held on a chip, and binding of the other changes the refractive index at the surface.
Chain of Human CD3eg linker (human) (chain, as listed by the source limits assumed): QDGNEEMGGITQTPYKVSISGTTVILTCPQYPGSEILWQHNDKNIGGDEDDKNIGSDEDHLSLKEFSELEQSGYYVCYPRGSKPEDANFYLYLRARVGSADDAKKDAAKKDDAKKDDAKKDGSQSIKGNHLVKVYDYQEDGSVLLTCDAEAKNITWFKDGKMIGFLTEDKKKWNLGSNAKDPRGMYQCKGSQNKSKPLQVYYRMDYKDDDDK
In the case of B1, the fold change of affinity came to 0 fold.
On to B2, for which the fold change of affinity was 0 fold.
To B3 belongs 0 fold.
To B4 belongs 0 fold; to B5, 0 fold.
To B6 belongs 0 fold; to B7, 0 fold; to B8, 0 fold.
Regarding B9, the fold change of affinity came to 0 fold.
Take B10: the fold change of affinity is 0 fold.
In the case of B11 it was 0 fold; in that of B12, 0 fold; in that of B13, 0 fold.
In the case of B14 it was 0 fold.
To B15 belongs 0 fold; to B16, 0 fold; to B17, 0 fold.
Consider B18, for which the fold change of affinity was 0 fold.
In the case of B19 it was 0 fold; in that of B20, 0 fold.
